From the supplement of paper PMC9112550, “Optimization of the antimicrobial peptide Bac7 by deep mutational scanning” (BMC Biology, 2022)

tested on: Escherichia coli TOP10; experiment: shrunken log2 fold change of peptide-encoding DNA abundance (4.5 h post-induction vs induction); higher = less antimicrobial activity (less host growth inhibition); conditions: time post-induction: 4.5 h; library: site-saturation at positions 5, 18, 19, 20
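Further: peptides expressed intracellularly from a pBAD plasmid library in pooled LB shake-flask culture, induced with 0.3% L-arabinose, DNA abundance read by NGS, three biological replicates, DESeq2 with apeglm shrinkage.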

Sequence | shrunken log2 fold change
RRIRHRPPRLPRPRPRPRTWPRP | 0.207
RRIRTRPPRLPRPRPRPCHPPRP | -0.0634
RRIRMRPPRLPRPRPRPTRHPRP | 0.889
RRIRGRPPRLPRPRPRPMLKPRP | 0.575
RRIRQRPPRLPRPRPRPPRKPRP | 0.835
RRIRVRPPRLPRPRPRPVEEPRP | -0.143
RRIRYRPPRLPRPRPRPAWCPRP | -0.0756
RRIRGRPPRLPRPRPRPVLVPRP | 0.628
RRIRDRPPRLPRPRPRPKHQPRP | 0.0157
RRIRDRPPRLPRPRPRPVYYPRP | -0.707
RRIRLRPPRLPRPRPRPFLEPRP | -0.106
RRIRLRPPRLPRPRPRPANFPRP | 0.0302
RRIRWRPPRLPRPRPRPFFQPRP | 0.329
RRIRRRPPRLPRPRPRPPEYPRP | 0.0513
RRIRCRPPRLPRPRPRPSRYPRP | -0.285
RRIRPRPPRLPRPRPRPPKSPRP | 0.177
RRIRDRPPRLPRPRPRPFKNPRP | 0.11
RRIRLRPPRLPRPRPRPGVPPRP | 0.0447
RRIRTRPPRLPRPRPRPFKEPRP | -0.125
RRIRERPPRLPRPRPRPLVCPRP | 0.00932
RRIRTRPPRLPRPRPRPTDQPRP | -0.143
RRIRRRPPRLPRPRPRPNNMPRP | -0.348

Sequence | shrunken log2 fold change
RRIRTRPPRLPRPRPRPGLQPRP | -0.138
RRIRFRPPRLPRPRPRPYMRPRP | 0.00487
RRIRSRPPRLPRPRPRPMPGPRP | -0.102
RRIRKRPPRLPRPRPRPDNNPRP | 0.0165
RRIRMRPPRLPRPRPRPCWHPRP | -0.0624
RRIRWRPPRLPRPRPRPHTAPRP | -0.0505
RRIRDRPPRLPRPRPRPHAYPRP | -0.218
RRIRGRPPRLPRPRPRPWRFPRP | 0.425
RRIRLRPPRLPRPRPRPAHHPRP | 0.0653
RRIRNRPPRLPRPRPRPMYDPRP | 0.0456
RRIRERPPRLPRPRPRPWDVPRP | 0.0649
RRIRFRPPRLPRPRPRPNERPRP | 0.047
RRIRYRPPRLPRPRPRPGCDPRP | -0.282
RRIRHRPPRLPRPRPRPGCDPRP | 0.123
RRIRTRPPRLPRPRPRPGGKPRP | -0.215
RRIRHRPPRLPRPRPRPLNNPRP | -0.684
RRIRKRPPRLPRPRPRPIDPPRP | -0.0828
RRIRHRPPRLPRPRPRPGPSPRP | 0.188
RRIRQRPPRLPRPRPRPPCEPRP | -0.00701
RRIRMRPPRLPRPRPRPPGHPRP | 1.03
RRIRRRPPRLPRPRPRPVLAPRP | 0.83
RRIRFRPPRLPRPRPRPWHMPRP | -0.121

Sequence | shrunken log2 fold change
RRIRLRPPRLPRPRPRPFITPRP | -0.35
RRIRTRPPRLPRPRPRPPIGPRP | 0.0445
RRIRARPPRLPRPRPRPWHQPRP | 0.0524
RRIRDRPPRLPRPRPRPGKIPRP | -0.176
RRIRNRPPRLPRPRPRPNLRPRP | -0.325
RRIRPRPPRLPRPRPRPHPTPRP | 0.17
RRIRSRPPRLPRPRPRPGETPRP | 0.488
RRIRNRPPRLPRPRPRPDIHPRP | -0.0173
RRIRKRPPRLPRPRPRPSMMPRP | 0.677
RRIRMRPPRLPRPRPRPPYLPRP | 0.204
RRIRWRPPRLPRPRPRPAGAPRP | 0.392
RRIRWRPPRLPRPRPRPQQKPRP | -0.0581
RRIRCRPPRLPRPRPRPFCLPRP | -0.327
RRIRARPPRLPRPRPRPGACPRP | 0.783
RRIRERPPRLPRPRPRPGLGPRP | 0.602
RRIRARPPRLPRPRPRPTVGPRP | 0.794
RRIRCRPPRLPRPRPRPETSPRP | 0.0533
RRIRYRPPRLPRPRPRPELSPRP | 0.0544
RRIRSRPPRLPRPRPRPKMGPRP | -0.108
RRIRYRPPRLPRPRPRPKRRPRP | 0.0144
RRIRHRPPRLPRPRPRPLDQPRP | -0.116
RRIRQRPPRLPRPRPRPSTIPRP | -0.0567

Sequence | shrunken log2 fold change
RRIRARPPRLPRPRPRPLQDPRP | 0.25
RRIRSRPPRLPRPRPRPTAIPRP | -0.0172
RRIRHRPPRLPRPRPRPNHTPRP | -1.04
RRIRTRPPRLPRPRPRPHREPRP | -0.075
RRIRHRPPRLPRPRPRPVKYPRP | -0.0563
RRIRIRPPRLPRPRPRPDIIPRP | -0.0935
RRIRFRPPRLPRPRPRPPSTPRP | 0.342
RRIRHRPPRLPRPRPRPYVVPRP | 0.0242
RRIRRRPPRLPRPRPRPVLDPRP | 0.402
RRIRARPPRLPRPRPRPTCWPRP | 0.651
RRIRERPPRLPRPRPRPSRWPRP | 1.41
RRIRTRPPRLPRPRPRPSGLPRP | -0.573
RRIRARPPRLPRPRPRPCKQPRP | -0.0572
RRIRRRPPRLPRPRPRPMWYPRP | 0.0371
RRIRCRPPRLPRPRPRPDHFPRP | -0.175
RRIRLRPPRLPRPRPRPLWMPRP | -0.00586
RRIRHRPPRLPRPRPRPNSVPRP | -0.00436
RRIRERPPRLPRPRPRPHQWPRP | -0.199
RRIRTRPPRLPRPRPRPLVMPRP | -0.0423
RRIRCRPPRLPRPRPRPCRIPRP | -0.271
RRIRFRPPRLPRPRPRPYEFPRP | -0.245
RRIRDRPPRLPRPRPRPLEIPRP | 0.287

Sequence | shrunken log2 fold change
RRIRDRPPRLPRPRPRPRNTPRP | -0.205
RRIRNRPPRLPRPRPRPEFGPRP | -0.106
RRIRKRPPRLPRPRPRPTTKPRP | -0.0244
RRIRDRPPRLPRPRPRPHINPRP | -0.683
RRIRVRPPRLPRPRPRPFANPRP | -0.0887
RRIRIRPPRLPRPRPRPAHWPRP | 0.396
RRIRPRPPRLPRPRPRPHPQPRP | 0.238
RRIRWRPPRLPRPRPRPKRGPRP | 0.239
RRIRGRPPRLPRPRPRPIWWPRP | 0.922
RRIRCRPPRLPRPRPRPGYFPRP | -0.394
RRIRQRPPRLPRPRPRPYWCPRP | -0.164
RRIRFRPPRLPRPRPRPLCVPRP | -0.394
RRIRNRPPRLPRPRPRPWTHPRP | -0.0174
RRIRYRPPRLPRPRPRPLMIPRP | -1.73
RRIRVRPPRLPRPRPRPDMQPRP | -0.081
RRIRNRPPRLPRPRPRPVHWPRP | 0.384
RRIRTRPPRLPRPRPRPMWPPRP | -0.0463
RRIRWRPPRLPRPRPRPCRMPRP | -0.0166
RRIRCRPPRLPRPRPRPPTLPRP | -0.0423
RRIRSRPPRLPRPRPRPYERPRP | -0.0323
RRIRERPPRLPRPRPRPPALPRP | 0.114
